Results taken from US20190119357A1, “MESSENGER RIBONUCLEIC ACIDS FOR THE PRODUCTION OF INTRACELLULAR BINDING POLYPEPTIDES AND METHODS OF USE THEREOF” (ModernaTX, Inc., priority 2015, published 2019).
Entries after “also recorded” stand apart in the source; their conditions may differ.

Experiments:
[1] = molecular target: T1, BCL-2 (Homo sapiens, UniProt P10415); experiment: Co-immunoprecipitation after mRNA transfection; type: binding; settings: within two hours after mRNA transfection
T1 construct: endogenous in cells; host or cells: cells transfected with SQT-BH3 mRNA (HeLa by context)
T1 sequence (P10415 whole entry): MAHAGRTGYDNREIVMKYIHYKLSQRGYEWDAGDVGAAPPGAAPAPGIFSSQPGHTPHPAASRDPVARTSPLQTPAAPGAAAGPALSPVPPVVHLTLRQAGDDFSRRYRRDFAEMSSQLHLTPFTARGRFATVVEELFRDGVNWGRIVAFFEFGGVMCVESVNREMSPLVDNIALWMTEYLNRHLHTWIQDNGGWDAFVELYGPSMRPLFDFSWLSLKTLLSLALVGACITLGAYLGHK

[2] = tested on: Hep3b xenografts; experiment: Efficacy in SCID mice bearing subcutaneous Hep3B xenografts; type: in vivo; settings: SC Hep3B, 2mpk or 3mpk weekly (Day 1 and Day 8), mmRNA with miR-122 binding site in MC3 LNPs (1.5% DSPE)
Experimental: LNPs comprising the cationic lipid MC3 were tested using the optimal molar percentage of PEG-lipid and optimal PEG length (1.5% DSPE, C18, as described in Example 10), for in vivo targeted delivery of SQT-PUMA-BH3.
SCID mice were dosed weekly (Day 1 and Day 8) over a two week period with mmRNA encoding SQT-PUMA-BH3 (comprising a miR-122 binding site), as described above.

[3] = Survival of mice treated with MC3 LNP formulations of mRNA with or without miR-122 binding site; type: in vivo
From the text: Negative controls included mRNA encoding SQT alone or SQT with a miR-122 binding site. Constitutively active caspase 6 was used as a positive control. An LNP containing a non-translatable factor IX cap 0 mRNA was used to control for mRNA and lipid effects that might be independent of the proteins encoded by the modified mRNAs. […] This dose was 10 times greater than a dose of mRNA encoding SQT-PUMA-BH3 that killed 40% of mice.

[4] = tested on: primary mouse hepatocytes; experiment: Sorafenib combination in primary mouse hepatocytes; type: cell-based; settings: SQT-PUMA-BH3 205 pM or 1100 pM, SQT-Bad-BH3 549 pM or 1100 pM, sorafenib 0-10 uM
Experimental: Similar combination experiments were performed with primary mouse hepatocytes, treated with SQT-PUMA-BH3 (205 pM or 1100 pM) or SQT-Bad-BH3 (549 pM or 1100 pM) in combination with sorafenib (0-10 μM). […] Thus, normal primary liver cells are spared by the combination treatment, indicating the combination treatment can selectively kill liver cancer cells over normal liver cells.

[5] = tested on: human melanoma cells (A375); experiment: Cell death after mRNA transfection; type: cell-based
[6] = tested on: primary hepatocytes; experiment: Apoptosis induction by MC3 LNP-formulated mRNAs in primary hepatocytes cultured in vitro; type: cell-based
[7] = tested on: Hep3B cells; experiment: SQT-BH3 in combination with siMCL1 or sorafenib, YOYO-3; type: cell-based; settings: 10 uM sorafenib tosylate, 24 hours after treatment
[8] = tested on: systemic TF1a xenografts; experiment: Systemic TF1a xenografts in SCID mice (AML model); type: in vivo
Experimental: LNPs comprising the cationic lipid MC3 were tested using the optimal percentage of PEG-lipid and optimal PEG length (1.5% DSPE, C18, as described in Example 8), for in vivo targeted delivery of SQT-PUMA-BH3 in two different in vivo models of acute myeloid leukemia (AML). One model used systemic TF1a xenografts in SCID mice. The other model used systemic HEL xenografts in SCID mice. Each of these models uses a human erythroleukemia cell line. The HEL erythroleukia cell line is described in, for example, Martin, P. and Papayannopoulou, T. (1982) Science 216:1233-1235. The TF1 erythroleukmia cell line (from which TF1a is derived) is described in, for example, Kitamura, T. et al. (1989) J. Cell. Physiol. 140:323-334. Unless otherwise noted, mRNAs were fully modified with N1-methlypseudouridine to avoid stimulating an innate immune response to said mRNAs when administered in vivo.
In a first set of experiments, TF1a cells stably expressing luciferase (TF1α-luc cells) were implanted systemically in SCID mice. Tumor growth was measured by whole body bioluminescent imaging (BLI) in anaesthetized animals following SC injection of 150 mg/kg D-Luciferin, in an imaging chamber (Spectrum CT). Animals showing an increasing tumor burden at day 12 post-cell implantation were recruited for treatment. Animals were randomized into four study groups, as follows: PBS IV (Group 1), cytarabine at 2 mg/kg three times per week (Group 2), LNPs containing mRNA encoding Green Fluorescent Protein (GFP) at 3 mg/kg one time per week (Group 3) and LNPs containing mRNA encoding SQT-PUMA-BH3 (comprising a miR122 binding site) at 3 mg/kg one time per week. Mice were dosed intravenously for four weeks.

[9] = tested on: Orthotopic Hep3B xenografts; experiment: Efficacy in SCID mice bearing orthotopic Hep3B xenografts; type: in vivo; settings: orthotopic Hep3B study, over the course of the study
Experimental: LNPs comprising the cationic lipid MC3 were tested using the optimal percentage of PEG-lipid and optimal PEG length (1.5% DSPE, C18, as described in Example 10), for in vivo targeted delivery of SQT-PUMA-BH3 in a model of Orthotopic Hep3B xenografts.
SCID mice were anesthetized, a transverse incision was made below the xiphoid and Hep3B cells (2×10^6) were injected into the upper left lobe of the liver, followed by surgical closure of the abdomen and skin. Tumor growth was measured by whole body bioluminescent imaging (BLI) in anaesthetized animals following SC injection of 150 mg/kg D-Luciferin, in an imaging chamber (Spectrum CT). Bioluminescence was measured as total flux (photons/second) of the entire animals. On Day 8 following tumor implantation when tumor BLI reached an average of 3.17×10^8 photons/sec (range 12.37×10^7−1.38×10^9 photons/sec), animals were randomized into study groups and treated weekly over a three week period (Days 9, 16 and 23) with PBS IV (Group 1), SQT 3 mg/kg IV (Group 2), mmRNA encoding SQT-PUMA-BH3 (comprising a miR122 binding site) weekly at 0.75 mg/kg (Group 3), 1.5 mg/kg (Group 4) or 3 mg/kg IV (Group 5; 12 animals per group). One week following the final dose, animals were euthanized and tumors excised and weighed.

[10] = tested on: HepG2 cells; experiment: Cell death by YOYO3 with MC3 LNPs; type: cell-based
[11] = molecular target: T2, BCL-XL (Homo sapiens, UniProt Q07817); experiment: Co-immunoprecipitation after mRNA transfection; type: binding; settings: within two hours after mRNA transfection
T2 construct: endogenous in cells; host or cells: cells transfected with SQT-BH3 mRNA (HeLa by context)
T2 sequence (Q07817 whole entry): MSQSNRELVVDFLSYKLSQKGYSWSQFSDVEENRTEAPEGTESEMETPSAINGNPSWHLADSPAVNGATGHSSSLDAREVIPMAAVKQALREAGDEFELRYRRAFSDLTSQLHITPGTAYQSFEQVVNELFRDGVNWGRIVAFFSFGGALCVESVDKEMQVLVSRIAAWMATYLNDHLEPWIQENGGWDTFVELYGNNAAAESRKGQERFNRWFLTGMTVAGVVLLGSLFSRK

[12] = tested on: human hepatocellular carcinoma (Hep G2) cells; experiment: Cell death and morphology after mRNA transfection; type: cell-based
From the text: A representative graph of the apoptotic ability of the SQT-BH3 constructs is shown in FIG. 2, showing the cell killing capacity of the SQT-BH3 constructs in Hep G2 cells.

[13] = TF1a-SCID mice, 3 mg/kg one time per week

B1: SQT-PUMA-BH3: mRNA (SEQ ID NO: 49, FLAG) encoding SQT scaffold with PUMA BH3 domain in N-terminus, fully modified with 1-methyl-pseudouridine (nucleic acid)
chain: ATGATCCCAAGAGAAGAACAGTGGGCACGCGAAATTGGAGCTCAACTCAGACGGATGGCCGACGACCTGAACGCCCAGTACGAGCGGCGGGGACTCTCAGAAGCGAAGCCTGCCACCCCCGAAATCCAGGAAATCGTCGACAAGGTCAAGCCGCAGCTTGAGGAAAAGACCAACGAGACTTACGGAAAACTGGAGGCCGTGCAGTATAAGACCCAAGTGTTGGCCTCCACCAACTACTACATTAAGGTCCGCGCCGGCGATAACAAGTACATGCACCTGAAGGTGTTCAATGGTCCTCCGGGACAGAACGCGGACAGGGTGCTGACTGGCTACCAAGTGGACAAGAACAAGGACGACGAGCTGACGGGCTTCGACTACAAGGATGATGATGACAAA
modifications: FLAG tag, 1-methyl-pseudouridine; Synthetic SQT-PUMA-BH3 mRNA sequence with FLAG epitope tag
[1]
  interaction with BCL-2 by co-immunoprecipitation: to a lesser extent
[2]
  tumor growth inhibition (TGI): significantly greater TGI than the mice treated with PBS alone
[3]; mRNA without miR-122 binding site, dose 10 times lower than 1 mg/kg
  mice killed: 40%
[3]; mice, MC3 LNP formulations, 0.1-3 mg/kg
  toxicity / tolerable dose / survival: very toxic over a range of doses
[3]; mice, MC3 LNP, mRNA without miR-122 binding sites, range of doses
  death of the treated animals, time: ≤ 5 h
[3]; mice, lowest dose of 0.1 mg/kg, mRNA without miR-122 binding sites
  survival rate: approximately 60%
[4]
  apoptosis in combination with sorafenib: neither SQT-BH3 construct, in combination with sorafenib, caused apoptosis
[5]
  cell death: caused rapid cell death almost immediately following transfection
[6]; LNPs
  PARP-1 cleavage: also induced PARP-1 cleavage in primary hepatocytes
[6]; MC3-LNP-formulated
  apoptosis (YOYO-3 dye uptake and fluorescence) as a function of time: induce apoptosis
[7]
  apoptosis (YOYO-3) in combination with either siMCL1 or sorafenib: led to a marked increase in apoptosis as compared to treatment with the SQT-BH3 construct in combination with non-targeting siRNA or PBS; also recorded: synergistic pro-apoptotic effect
[8]; [13]
  body weight: did not cause significant body weight changes
  tolerability / treatment-related mortality: well tolerated, resulting in no treatment-related mortality
[8]; TF1a-SCID, mRNA LNPs 3 mg/kg one time per week, cytarabine 2 mg/kg three times per week, IV, four weeks
  systemic tumor growth (BLI): led to greater tumor growth inhibition than treatment with cytarabine
[9]
  percent body weight change / tolerability: did not significantly impact body weight
[10]
  cell death (YOYO3 staining): lead to cell death; also recorded: kills HepG2 cells
[11]
  interaction with BCL-XL by co-immunoprecipitation: able interact
[12]
  cell death: caused rapid cell death almost immediately following transfection; also recorded: underwent cell death almost immediately following transfection
  cell morphology: rounded-up cell morphology that is characteristic of apoptotic cells
